From publication PMC7432317, “Structural Analysis of the SANT/Myb Domain of FLASH and YARP Proteins and Their Complex with the C-Terminal Fragment of NPAT by NMR Spectroscopy and Computer Simulations” (International Journal of Molecular Sciences, 2020)

Molecular target: T1, C-terminal fragment of FLICE-associated huge protein (FLASH), residues 1923-1982 (human, UniProt Q9UKL3 1923-1982)
T1 construct: FLASH (FLICE-associated huge protein), residues 1923-1982; residue 1982 is the C-terminal amino acid of the protein; Uniformly 15N- or 13C,15N-labelled for NMR; also called FLASH fragment; SANT/Myb domain of FLASH; source: E. coli BL21 (DE3), pET28a, minimal M9 media, purified (nickel beads, SEC Superdex 75)
T1 sequence (looked up): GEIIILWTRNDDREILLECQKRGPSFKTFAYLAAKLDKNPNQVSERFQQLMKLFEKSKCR
Experiment: NMR titration; 1H-15N HSQC of 15N-labelled FLASH fragment (300 uM) with step-wise addition of the NPAT peptide (150 uM, two fold molar excess of FLASH analysed; equimolar mixtures precipitated); 25 mM TRIS-HCl, 200 mM KCl, pH 6.2, 50 mM Arg+Glu, 40 mM TCEP, 298 K
Settings: both partners purified

- binding result: binds
B1: NPAT peptide, the last 31 residues of NPAT (1397-1427) (peptide)
peptide: KKKKIKKKKLPSSFPAGMDVDKFLLSLHYDE
notes: Free N-terminus, carboxyl at C-terminus; also called C-terminal NPAT peptide; source: synthetic peptide (Fmoc solid phase synthesis, RP-HPLC purified)
